Experiment [1] concerns the target apolipoprotein E ɛ2 (apoE ɛ2) (human (endogenous in plasma)) (UniProt P02649). In words: non-reducing SDS-PAGE with western blot.
Experiment [2] has as its target apolipoprotein E ɛ3 (apoE ɛ3) (human (endogenous in plasma)) (UniProt P02649). In words: non-reducing SDS-PAGE with western blot.

Substance “apolipoprotein E ɛ2 (apoE ɛ2) (from UniProt P02649 19-317) (natural protein)” returned a stoichiometry N in experiment [1] of 2.
In experiment [2], “apolipoprotein E ɛ3 (apoE ɛ3) (from UniProt P02649 19-317) (natural protein)” had a stoichiometry N of 2.

The record behind these values is publication PMC9986708.
